Laboratory results as given in PMC10204968.

Molecular target: Hfq (His6-Hfq) (Histophilus somni strain 2336) (UniProt B0UTF5)
Assay: EMSA
Conditions: 10 mM Tris-HCl pH 7.4, 6% glycerol, 50 ug/ml BSA, 0.75 ug baker's yeast tRNA, 200 ng sRNA, 15 ul, room temperature 30 min; 6% native PAGE, 0.5x TBE, GelGreen …

Sequence of Hfq (His6-Hfq) (Histophilus somni strain 2336) (B0UTF5 whole entry): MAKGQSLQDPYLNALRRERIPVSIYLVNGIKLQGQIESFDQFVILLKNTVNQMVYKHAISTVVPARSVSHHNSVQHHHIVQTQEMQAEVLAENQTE

Row | Sequence | binding
1 | GGGCGCUGGCAGGCUAAUGACUAAUAAGAUGAUAACUAGGAUAAUGUAUUUAAACAUUGUGUUAUCCUCUUCAAAGUUGGGUGGAUUGAAGGUCGCACCCAGCUCGUUUCCGCAGUAUUGCGAAAACAAGAAUAUUAUAGGUCGUUUUAUAUUUCUGGUCAAGGAAUAAAACGACCUAUUUUUUAUUUGAC [HS97 sRNA] | binds
2 | GGGAAUAAUACUGAAUAAUAGCUAUAUUACGACAAAGGGCGUAAGCUGCCACAAGUGCUACUUAAUCGGGCGUAAGCUGCCAUAAGUGCUACUUAAUUAGGUGCAAGCUACCGUAAGUGCUGAAGAAAAGAUGCCUAACGGCAUCUUUUUUUUGCU [HS9 sRNA] | binds
